Molecular target: mouse CD147 (mouse) (UniProt P18572)

Rat anti-mouse CD147 monoclonal antibody purified from the RL73.2 hybridoma
migration induced by CypA (Boyden chamber chemotaxis) of mouse neutrophils, monocytes and activated CD4+ T cells: > 90%

Source: patent US20090258024A1
